For data set [1], the target named is T1, FUN DNA-binding domain (bZIP) (Lotus japonicus).
T1 chain: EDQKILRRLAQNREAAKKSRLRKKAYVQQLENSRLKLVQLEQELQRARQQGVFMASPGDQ
Kind of data set: EMSA; same buffer, 37 C. Conditions: chain copies: 2; label: 5' 6-FAM. As for the experimental part: (§1) The purified FUN DNA binding domain (residues 178-237) was incubated with the probes at 37° C. for 60 min in EMSA buffer (25 mM Tris-HCl pH8.0, 80 mM NaCl, 35 mM KCl, 5 mM MgCl₂). After incubation, the reaction mixture was electrophoresed in 6% native polyacrylamide gel and then labelled DNA was detected with the Typhoon scanner (Fujifilm). Probes without 6-FAM-label served as competitors, while probes with mutation in the core binding sites (TGACG) served as mutants.
(§2) The promoter region of Nrt2.1 had four putative FBSs (P1-P4), the promoter region of Ho1 had two FBSs (P1 and P2), the promoter region of NAC094 had one FBS (P1), the promoter region of Nrt3.1 had three FBSs (P1, P2, and P3), and the promoter region of AS1 had one FBS (P1), all of which are illustrated in FIG. 2C. EMSA was conducted to test whether the FUN DNA-binding domain bound probes representing the FBSs.
In general terms: Mobility shift assays separate free from complexed probe on a gel.

Data set [2] deals with the molecule itself. Kind of data set: confocal imaging of FUN-GFP in N. benthamiana leaves infiltrated with 500 µM ZnCl2.
Data set [3] concerns the target T1, FUN DNA-binding domain (bZIP). Kind of data set: EMSA; 25 mM Tris pH 8.0, 80 mM NaCl, 35 mM KCl, 5 mM MgCl2, 37 C. Conditions: chain copies: 2; label: 5' 6-FAM. The procedure:
as §1, §2

Data set [4] has the same target. Kind of data set: EMSA; same buffer, 37 C; printed reverse strand identical to forward. Conditions: chain copies: 2; label: 5' 6-FAM. As for the experimental part:
as §1, §2

B1: NRT3.1 P2 (dsDNA)
DNA 1: GGTTTTTATTTTTGACCTCAGAGGGGATCG
DNA 2: CGATCCCCTCTGAGGTCAAAAATAAAAACC
For the molecule B1, the binding result in data set [1] is recorded as “binds”.

B2: HO1 P1 (dsDNA)
DNA 1: TGTAATAACTTGTGAGCGAAGCAGGGATCC
DNA 2: GGATCCCTGCTTCGCTCACAAGTTATTACA
With B2, the binding result in data set [1] is given as “binds”.

B3: NRT3.1 P1 (dsDNA)
DNA 1: CGTTCATTAATATGACATCAGAATTTCTCT
DNA 2: AGAGAAATTCTGATGTCATATTAATGAACG
As for B3, the binding result in data set [1] is reported as “binds”.

B4: NRT3.1 P3 (dsDNA)
DNA 1: AGACCTATTTTCTGACTCAATGTAGAGGGT
DNA 2: ACCCTCTACATTGAGTCAGAAAATAGGTCT
In the case of B4, in data set [1], the binding result is “binds”.

B5: NRT2.1 P4 (dsDNA)
DNA 1: AGATTTAAGTTGACGTATTAATGACAATGA
DNA 2: TCATTGTCATTAATACGTCAACTTAAATCT
In the case of B5, the binding result in data set [1] is on record as “binds”.

B6: FUN-GFP (FUN fused to green fluorescent protein) (other)
chain: MQGFKTAQGNSHLYCHPSSFLLRGDDTSRNHTRFSDLGELQHSSNIFQQDDAVDLSSSNLPCSMYSVKSCNVVGGGSNMQYGTLNTNLGSAEIVSTGAGCLETGQQLMYHKEISMATMPMGNGHVENWADSSGMADNSQQTDDTSTDVDTDDKIQSNRDKRGTHMVVHSRDQTKSKPEDQKILRRLAQNREAAKKSRLRKKAYVQQLENSRLKLVQLEQELQRARQQGVFMASPGDQSHLAVGGANGASAFDMEYAHWVDEHQRLLTDLRSALNSQMGDNELHLLVDGVMAHYDELFRLKSLGAKADVFHMHSGLWKTPAERCFMWLGGFRSTELLKIVKNHLEPLTEPQLMGIDNLLRCAQQGEDALTQGMEALQQALVDTLSSTSLGPAGAGNVADYMGQMAIAMGKLATLESFLHSADLVKQQTLQQLQRILTTRQMARALLVRNDYISRLRALSSLWLARPRESSVMSSLPPSNIE
notes: Expressed inside plant cells, where it is nuclear (N. benthamiana leaves, Lotus hairy roots), not on the cell surface; also called pro35S:FUN-GFP; proUbi:FUN-GFP; not shown: eGFP fused to the FUN CDS
With B6, the binding result in data set [2] is recorded as “binds”.

B7: NAC094 P1 (dsDNA)
DNA 1: AGGAGAGGTTTGTGAGCATCAGCAAAGTGT
DNA 2: ACACTTTGCTGATGCTCACAAACCTCTCCT
On to B7, for which the binding result in data set [1] is “binds”.

B8: NRT2.1 P1 (dsDNA)
DNA 1: ACAAGTAGCTTATGACGTACGACATATAGT
DNA 2: ACTATATGTCGTACGTCATAAGCTACTTGT
Consider B8, for which the binding result in data set [3] is given as “binds”.

B9: HO1 P2 (dsDNA)
DNA 1: TCGAGCCTGCCTTGAGCTTGTCTTCTCCAT
DNA 2: ATGGAGAAGACAAGCTCAAGGCAGGCTCGA
For B9, the binding result in data set [1] is given as “binds”.

B10: AS1 P1 (dsDNA)
DNA 1: CATGTGGGCTTTTGACGAAGGTTCAAGTAG
DNA 2: CTACTTGAACCTTCGTCAAAAGCCCACATG
As for B10, the binding result in data set [4] is listed as “binds”.

The record behind these values is patent publication US20240271152A1, “ENHANCING NITROGEN FIXATION WITH FUN” (Aarhus Universitet, published 2024).
